Results taken from the supplement of paper PMC10724198.
± gives the standard deviation of the averaged measurements.

Test system: Saccharomyces cerevisiae
Experiment: protein stability index of tFT-peptide fusion (C-terminal peptide) (PSI (0-1 scale)); higher = more stable (slower turnover)
Conditions: genetic background: wild type; temperature: 30 C
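Also: PSI is a weighted mean of sequencing reads over stability bins, variants kept only with over 10 reads, mCherry proximal and sfGFP distal, peptide attached via GGGS linker.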

Sequence	protein stability index
RERVVSVKLGGG	0.688 ± 0.018
RETSRNCGKVST	0.745 ± 0.043
REWGWGALVMWG	0.638 ± 0.042
RFGGSGGLPGGW	0.665 ± 0.031
RFGLRVLGGACR	0.591 ± 0.071
RFGSGKCLALRG	0.689 ± 0.066
RFGSLKWGRGCI	0.6759 ± 0.0044
RFKCVKPPLPRR	0.715 ± 0.03
RFLDVSRYAGGV	0.705 ± 0.025
RFLISYFYKVIR	0.56 ± 0.034
RFQWAFMSWSEP	0.823 ± 0.064
RFRCGLPMQERT	0.689 ± 0.064
RFRGYWSWGMTL	0.777 ± 0.13
RFVAFDFLGISL	0.736 ± 0.2
RFVHCRRKVAKR	0.667 ± 0.047
RFWDMGGYAGGL	0.733 ± 0.079
RGALQQLREHTS	0.687 ± 0.055
RGASLFPTPLAF	0.742 ± 0.043
RGCCSVAFRCVV	0.712 ± 0.066
RGEHKDYFYVMT	0.651 ± 0.0076
RGEMGLAPTGGD	0.651 ± 0.044
RGFCGGLWRPGV	0.769 ± 0.013
RGGDIEVPSDQN	0.705 ± 0.019
RGGGCNGVSVEG	0.6899 ± 0.0027
RGGGGGGSRTGA	0.706 ± 0.026
RGGGGGVECRVG	0.655 ± 0.075

Sequence	protein stability index
RGGGGPGWGSRG	0.684 ± 0.025
RGGGRRAWVWGG	0.675 ± 0.036
RGGGVWGKEDSQ	0.717 ± 0.052
RGGLDQVHKGFR	0.711 ± 0.086
RGGSGGRKCLGV	0.687 ± 0.0094
RGGSGGSCMRYV	0.678 ± 0.066
RGGTGGWKGVWV	0.71 ± 0.022
RGISAAAAPGEG	0.706 ± 0.024
RGKEREGGRQER	0.746 ± 0.045
RGLIVGMGAGMV	0.671 ± 0.015
RGLNIPRLSCRY	0.748 ± 0.008
RGPKDNGGSETS	0.713 ± 0.078
RGPPCPFPVPLP	0.74 ± 0.033
RGPRWETVSSCM	0.682 ± 0.027
RGRASVIWGGPG	0.659 ± 0.086
RGRDTETFSDNS	0.6901 ± 0.0054
RGRLRGPEPKMT	0.726 ± 0.078
RGRRGAGRKGGP	0.751 ± 0.15
RGRWLIVHCPTQ	0.605 ± 0.034
RGSGSGTRCRRS	0.682 ± 0.11
RGTGGGSESGVK	0.661 ± 0.063
RGTWAVGGGRGG	0.671 ± 0.065
RGVALWALYGAG	0.76502 ± 0.00052
RGVSRQVRTVDP	0.679 ± 0.03
RGVSVRLSLAYR	0.6216 ± 0.0048
RGWARGRQGCGG	0.726 ± 0.011

Sequence	protein stability index
RGWWVLWGGGWG	0.551 ± 0.025
RHARAARDSPRR	0.705 ± 0.081
RHGFTNINGIKH	0.714 ± 0.012
RHGVQMAGLKRR	0.679 ± 0.019
RHLMNYEKRNAN	0.723 ± 0.053
RHNKVSPNARYN	0.661 ± 0.027
RHPSVLPLSILL	0.653 ± 0.054
RHSPGPLLTPAP	0.712 ± 0.045
RHTPPTTPLSLL	0.701 ± 0.096
RICIGSLHGASI	0.576 ± 0.019
RICPEVSSVLIR	0.682 ± 0.035
RIFFTCDSFLCV	0.611 ± 0.04
RIGICSTNTSLQ	0.722 ± 0.067
RIGYGEGWKKGG	0.695 ± 0.067
RIINRIDNKIEK	0.672 ± 0.0039
RIKKTRVVRQKM	0.547 ± 0.04
RILLSHGNSRSI	0.699 ± 0.013
RINKRKKKKDKG	0.6136 ± 0.00074
RIQIKIKRTKNK	0.638 ± 0.11
RIRRERRIGLKV	0.559 ± 0.0092
RISGDVNCLSPR	0.718 ± 0.066
RISGVEKPLLRV	0.663 ± 0.015
RITRVRNKEQSK	0.692 ± 0.016
RIVMSSDHTFQG	0.635 ± 0.0072
RKAKHWKNKIQK	0.737 ± 0.048
RKCPRVCVFQSS	0.557 ± 0.017

Sequence	protein stability index
RKDEKEMVRKTK	0.682 ± 0.061
RKGRETGTKERE	0.671 ± 0.036
RKHIANPTDQND	0.673 ± 0.019
RKHLIPRPTSNP	0.71 ± 0.011
RKICINIEKKGE	0.682 ± 0.018
RKIRIDKQRKVK	0.716 ± 0.033
RKKKKKLKKKTE	0.66 ± 0.082
RKKRNKTQTSKT	0.6936 ± 0.00054
RKKRYRRRKIKK	0.773 ± 0.025
RKLFLKNELGSK	0.7 ± 0.14
RKLKNKTKREII	0.653 ± 0.0068
RKMRNGRKRKKK	0.62 ± 0.025
RKNNTVIKQIKR	0.656 ± 0.054
RKRKIKQYITTT	0.725 ± 0.043
RKVGRVGGGRLE	0.637 ± 0.018
RKVHNVETQITA	0.648 ± 0.018
RKVRRTRNSEGE	0.726 ± 0.011
RLAAPPRYPPLP	0.731 ± 0.12
RLATRPILDLPP	0.519 ± 0.026
RLAVLKGWTTFV	0.567 ± 0.039
RLAYSSGKAFRV	0.702 ± 0.012
RLCPGAALAFRG	0.718 ± 0.12
RLCRQPPSLLPP	0.6958 ± 0.0053
RLEFSFHPFFLS	0.658 ± 0.02
RLFAPSHSSSLP	0.733 ± 0.055
RLFLGSIGTLTS	0.673 ± 0.046

Sequence	protein stability index
RLFLSFVDRRSL	0.629 ± 0.06
RLFSPFTLPPFF	0.739 ± 0.063
RLFSYLSTLSFI	0.727 ± 0.053
RLGGAACLRSEC	0.627 ± 0.04
RLGLVITKLGVY	0.541 ± 0.0081
RLGNVYSTSFQC	0.618 ± 0.012
RLGRGRRGMRWL	0.659 ± 0.025
RLHFSSPLLHPP	0.601 ± 0.041
RLHPSFPPPPPQ	0.704 ± 0.029
RLIGLLRKTSKK	0.719 ± 0.089
RLLSGLAHRATR	0.672 ± 0.032
RLNKPRAPEKKA	0.717 ± 0.11
RLNQSKSTKYSE	0.651 ± 0.012
RLPPPLALDFRP	0.6308 ± 0.0063
RLPRSPLHPSVP	0.738 ± 0.016
RLPVIPRLIPSS	0.635 ± 0.028
RLPVPRSLWSSN	0.709 ± 0.013
RLRAFSRSVSSP	0.734 ± 0.11
RLRCRRPKPRRC	0.682 ± 0.035
RLRRPSSGPFMF	0.685 ± 0.037
RLSTPPAPQRPS	0.666 ± 0.013
RLTPLSSSRLPP	0.6556 ± 0.0043
RLVGCWGRVKFE	0.6927 ± 0.003
RLVGPFSSLRLF	0.649 ± 0.0072
RLYGCNYAQSRR	0.712 ± 0.047
RMGWTRCRGGYG	0.5865 ± 0.0044

Sequence	protein stability index
RMTRIKKKINKS	0.719 ± 0.034
RNAGIQVTGQAF	0.704 ± 0.0079
RNKKKAKKEENR	0.664 ± 0.048
RNKNYIDEEKER	0.661 ± 0.037
RNLFRRAPNQGL	0.723 ± 0.043
RNLPAHQARPDE	0.6751 ± 0.003
RNNLSLALPREW	0.725 ± 0.018
RNRYCNLRVGFD	0.679 ± 0.011
RNTRVSLPPRGQ	0.63 ± 0.041
RNVKETSNRREL	0.627 ± 0.11
RPDACTRFGLRV	0.678 ± 0.013
RPGLWGNEVGGN	0.735 ± 0.013
RPGNGLTLPTAS	0.622 ± 0.072
RPKGREKGEGRG	0.733 ± 0.077
RPLCRSFPPASL	0.788 ± 0.058
RPLLHPRTGRSH	0.677 ± 0.014
RPLLPPVLPPPL	0.684 ± 0.019
RPLLPYHPTRFD	0.721 ± 0.048
RPLSPPRPPPPS	0.678 ± 0.014
RPPGPPPPAPFP	0.711 ± 0.015
RPPHQAPPLPPS	0.704 ± 0.062
RPPHRRRDKKVS	0.701 ± 0.031
RPPPPPHRTGDC	0.607 ± 0.02
RPPPPPPPRFPP	0.706 ± 0.041
RPPPRPASPGSP	0.634 ± 0.039
RPQHSPSVLVSY	0.5884 ± 0.005

Sequence	protein stability index
RPRSPRSLPPPP	0.541 ± 0.043
RPRVAVPHTSLP	0.714 ± 0.069
RPSPSLPSPSPP	0.843 ± 0.081
RPTRPCSTPTAP	0.78 ± 0.012
RPYLARQTTAPS	0.6575 ± 0.0033
RQAIGRDTPRDP	0.649 ± 0.0073
RQGHKRVKISGM	0.599 ± 0.091
RQKTKRKDQKIK	0.709 ± 0.023
RQSSPPPRIAPT	0.6783 ± 0.0057
RRATCYGLGPTM	0.681 ± 0.013
RRERKARREAPR	0.682 ± 0.042
RRESTRSRWYEG	0.762 ± 0.14
RRGAVGAAGLKG	0.68884 ± 7e-05
RRGEVTQTCGCE	0.549 ± 0.054
RRGKGERSQFAP	0.647 ± 0.017
RRLNTRQERSNK	0.72 ± 0.032
RRLRCNDCPFVV	0.755 ± 0.085
RRLSGGNLLLLA	0.5914 ± 0.0018
RRLVLPFSRLLR	0.656 ± 0.019
RRNGVVGRLGGV	0.678 ± 0.032
RRNLSVSKRKWP	0.689 ± 0.014
RRPPVFCIPLFS	0.639 ± 0.015
RRPSRLLGPERI	0.717 ± 0.025
RRPTKGGPPTLC	0.67 ± 0.032
RRQWVLEQEGGT	0.732 ± 0.056
RRRAINIPNNRL	0.712 ± 0.016

Sequence	protein stability index
RRRGRAEREPSS	0.689 ± 0.05
RRRGSLGGVRGN	0.707 ± 0.058
RRRSGGVIWNRV	0.669 ± 0.009
RRRTTTNFKVGH	0.672 ± 0.014
RRRVTVYAPVDS	0.713 ± 0.015
RRRVWIQQRRKI	0.5481 ± 0.0053
RRSLSPPRPRYM	0.7 ± 0.018
RRSTRAGWPGNW	0.5 ± 0.1
RRTEHPRTRAAR	0.692 ± 0.045
RRTGGEDKHARP	0.67 ± 0.02
RRWCVDLAMSFA	0.646 ± 0.016
RSCGKAYNLLPL	0.683 ± 0.052
RSDEGHDVLCLY	0.615 ± 0.083
RSFVEQQCVTYA	0.628 ± 0.11
RSGCGVVGVWEE	0.668 ± 0.032
RSGGGVARRSYR	0.662 ± 0.013
RSGISFGIWVCF	0.586 ± 0.048
RSGLVRSLPLLL	0.664 ± 0.069
RSGVRWGGGGGG	0.711 ± 0.035
RSGWSYRDRGPS	0.651 ± 0.082
